From patent US20220387578A1

Tests used:
[1] = target: H3 HA A/Texas/50/2012, recombinant soluble trimer (influenza A virus)
[2] = target: H1 HA A/Solomon Islands/03/2006 (H1N1), recombinant soluble trimer (influenza A virus)
[3] = target: H1 HA A/Texas/36/1991 (H1N1), recombinant soluble trimer (influenza A virus)

| Substance | EC50 [1] [µg/mL] | EC50 [2] [µg/mL] | EC50 [3] [µg/mL] | EC50 relative to wild type rFluA-20 [2] [fold] |
| --- | --- | --- | --- | --- |
| rFluA-20 heavy chain mutant C101A (antibody) | 0.39 | 0.2 | 0.15 |  |
| rFluA-20 light chain mutant N53A (antibody) | 0.09 | 0.05 | 0.04 |  |
| rFluA-20 light chain mutant Q55A (antibody) |  |  | 0.23 | > 100 |
